# From US20030108548A1 (TOLERANCE THERAPEUTICS, published 2003)
# Where a chain is given by its changes, count along the chain named.
# B1: gOKT3-5 (antibody, human IgG4, V domains shown)
# VH: QVQLVQSGGGVVQPGRSLRLSCKASGYTFTRYTMHWVRQAPGKGLEWIGYINPSRGYTNYNQKVKDRFTISTDKSKSTAFLQMDSLRPEDTAVYYCARYYDDHYCLDYWGQGTPVTVSS
# VL: DIQMTQSPSSLSASVGDRVTITCSASSSVSYMNWYQQTPGKAPKRWIYDTSKLASGVPSRFSGSGSGTDYTFTISSLQPEDIATYYCQQWSSNPFTFGQGTKLQITR
# notes: Humanized OKT3, human IgG4/kappa; also called gLC/gHA; gOKT3-5(γ4); not shown: human IgG4 heavy chain constant region; human kappa light chain constant region
# B2: gOKT3-7(γ4) (antibody, V domains shown)
# VH: B1 VH with T72R, K74N, S77N, A92G, Y95F
# VL: B1 VL
# Tests used:
# [1] = biological target: human FcR I and FcR II on cells; test: 125I-human IgG on U937 cells in the absence of inhibitor
# [2] = biological target: human FcR I and FcR II on cells; test: competitive inhibition of PE-murine IgG2a or 125I-human IgG binding to U937 cells
# [3] = biological target: T1, human CD3 complex (human, UniProt P07766 23-207); test: competition against FITC-mOKT3 tracer on human PBMC, flow cytometry; affinity calculated from the competitor concentration at half-maximal tracer binding (FIG. 3A)
# T1 construct: whole, on cells; In all assays the target stood on cells as the whole TCR/CD3 complex; also called CD3 antigen; TCR complex
# [4] = biological target: T1, human CD3 complex; test: competition against FITC-mOKT3 tracer on human PBMC, flow cytometry; affinity calculated from the competitor concentration at half-maximal tracer binding (FIG. 3B)
molecule,measurement,setting,value
125I-labelled human IgG (antibody),maximum binding,[1],2750 cpm
same,maximum binding as percent of the total radioactivity added,[1],15%
B1,"fold higher concentration for the same inhibition, against murine OKT3",[2],10 fold
same,Ka,[3],1.1e+09 M⁻¹
B2,Ka,[4],1.4e+09 M⁻¹
